Test results as given in patent US12103969B2, “Anti-Siglec antibody, pharmaceutical composition comprising the same, and uses thereof” (Academia Sinica, priority 2018, dated 2024).

Assays:
hHBV [1] = experiment: Bio-layer interferometry: immobilized Fc-lectin and hHBV; assay type: binding, hepatitis B virus; conditions: hHBV, BLI, same condition as Siglec-3
Excerpt: HBV was purified from blood samples of chronic hepatitis B (CHB) patients and HBV-transgenic mice, respectively. The protocol for HBV was purified by conventional method. HBV viral load was determinate by RT-PCR according to a standard HBV plasmid. HBsAg level was quantified by the HBsAg ELISA kit.
Sialidase S and sialidase C were used to remove sialoglycan from HBV or sialoglycans, respectively. Sialidase S releases only α(2-3)-linked Neu5Ac, while Sialidase C release both α(2-3) and α(2-6)-linked Neu5Ac. The sialidase-treated substrates were used for HBV-Siglec-3 binding assay and competition assay.
The interaction between human Siglec.Fc fusion protein and HBV was determined by the Bio-layer interferometry. […] The valence between HBV and human Siglec-3 was determined, which correlates the strength of multivalent association with that of monovalent association as shown in the following: • KA, surf=F (S×10^−2)^n−1×(KA, mono)^n, where KA, surf is thereciprocal of KD (HBV and Siglec-3), KA, mono is the reciprocal of KD (Biantennary a2-6 linked sialylglycopeptide and Siglec-3); n is the number of valency number; F is the statistic factor in the system and S is equal to 40(Å), which is estimated according to crystal structure of Siglec-3 published on RCSB protein data bank (Number: 5J0B). […]

hHBV [2] = experiment: Immunoprecipitation of hHBV by Siglec ECD.Fc fusion proteins; assay type: binding, hepatitis B virus; conditions: Western blot with anti-HBs
Experimental: HBV ([…]) was incubated with recombinant Siglec-3/-7/-9 ECD.Fc fusion proteins, respectively, for 16 hours at 4° C., followed by incubation with Sepharose-conjugated Protein A beads for immunoprecipitation. The samples were fractionated on 12% SDS-PAGE before blotting to PVDF membrane and incubated in blocking buffer (0.05% Tween 20 in TBS containing 5% BSA) at 4° C. overnight. Blots were incubated with […] polyclonal goat-anti-HBs Ab for 1 hour at room temperature, followed by incubation with Streptavidin-HRP (1:10000 dilution) for another 1 hour at room temperature, and were visualized by ECL.

B1: Siglec-7: recombinant human Siglec-7 extracellular domain (ECD).Fc fusion protein (protein)
chain: QKSNRKDYSLTMQSSVTVQEGMCVHVRCSFSYPVDSQTDSDPVHGYWFRAGNDISWKAPVATNNPAWAVQEETRDRFHLLGDPQTKNCTLSIRDARMSDAGRYFFRMEKGNIKWNYKYDQLSVNVTALTHRPNILIPGTLESGCFQNLTCSVPWACEQGTPPMISWMGTSVSPLHPSTTRSSVLTLIPQPQHHGTSLTCQVTLPGAGVTTNRTIQLNVSYPPQNLTVTVFQGEGTASTALGNSSSLSVLEGQSLRLVCAVDSNPPARLSWTWRSLTLYPSQPSNPLVLELQVHLGDEGEFTCRAQNSLGSQHVSLNLSLQQEYTGKMRPVSGVLLGAVGGAGATALVFLSFCVIFIVVRSCRKKSARPAADVGDIGMKDANTIRGSASQGNLTESWADDNPRHHGLAAHSSGEEREIQYAPLSFHKGEPQDLSGQEATNNEYSEIKIPK
Question: What does the source list for B1?
Answer: binding to hHBV (hHBV [1]): did not bind; pull down of hHBV HBsAg (immunoprecipitation) (hHBV [2]): cannot pull down
